According to patent US20240018245A1 (Genentech, published 2024):

Assays:
[1] = biological target: T1, FcRH5 (fragment crystallizable receptor-like 5) on MOLP-2 cells (human, UniProt Q96RD9 16-977); assay: cell-based or functional assay
T1 sequence (looked up): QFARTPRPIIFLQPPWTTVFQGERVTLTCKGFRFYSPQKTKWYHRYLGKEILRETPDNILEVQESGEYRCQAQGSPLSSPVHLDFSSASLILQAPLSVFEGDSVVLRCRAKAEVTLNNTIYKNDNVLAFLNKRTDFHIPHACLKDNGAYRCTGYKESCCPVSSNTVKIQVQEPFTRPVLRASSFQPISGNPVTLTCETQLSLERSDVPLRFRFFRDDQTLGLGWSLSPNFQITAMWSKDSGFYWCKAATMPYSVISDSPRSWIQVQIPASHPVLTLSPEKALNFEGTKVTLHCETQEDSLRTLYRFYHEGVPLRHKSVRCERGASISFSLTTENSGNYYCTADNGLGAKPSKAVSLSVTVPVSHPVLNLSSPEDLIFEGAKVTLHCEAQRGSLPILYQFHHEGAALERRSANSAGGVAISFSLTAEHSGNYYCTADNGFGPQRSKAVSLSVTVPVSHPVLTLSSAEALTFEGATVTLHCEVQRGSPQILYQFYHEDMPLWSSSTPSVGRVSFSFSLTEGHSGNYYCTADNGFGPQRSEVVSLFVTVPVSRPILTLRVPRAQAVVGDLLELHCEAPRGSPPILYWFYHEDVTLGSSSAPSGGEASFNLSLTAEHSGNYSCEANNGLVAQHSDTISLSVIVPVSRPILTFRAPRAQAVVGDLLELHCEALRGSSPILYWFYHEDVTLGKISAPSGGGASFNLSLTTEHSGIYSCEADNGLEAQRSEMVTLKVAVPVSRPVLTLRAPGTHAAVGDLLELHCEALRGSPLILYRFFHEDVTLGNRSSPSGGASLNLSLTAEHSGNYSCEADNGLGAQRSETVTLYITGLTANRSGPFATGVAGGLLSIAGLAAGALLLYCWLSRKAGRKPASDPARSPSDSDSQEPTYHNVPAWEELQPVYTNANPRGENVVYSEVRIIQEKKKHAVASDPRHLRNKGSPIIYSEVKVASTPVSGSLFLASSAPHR

[2] = biological target: CD3 on T cells of human peripheral blood mononuclear cells (PBMCs) (human, UniProt P07766 23-207); assay: cell-based or functional assay
Sequence of CD3 on T cells of human peripheral blood mononuclear cells (PBMCs) (P07766 23-207): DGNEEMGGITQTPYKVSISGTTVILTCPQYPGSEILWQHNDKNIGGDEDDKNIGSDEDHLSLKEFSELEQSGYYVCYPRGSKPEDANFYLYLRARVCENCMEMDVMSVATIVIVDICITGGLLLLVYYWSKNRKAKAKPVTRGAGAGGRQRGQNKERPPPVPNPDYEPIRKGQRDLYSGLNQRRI

[3] = biological target: T2, CD3 (cluster of differentiation 3) (UniProt P07766 23-126); assay: method not stated; monovalent KD used to calculate CD3 receptor occupancy
T2 construct: also called CD3 antigen
T2 sequence (P07766 23-126): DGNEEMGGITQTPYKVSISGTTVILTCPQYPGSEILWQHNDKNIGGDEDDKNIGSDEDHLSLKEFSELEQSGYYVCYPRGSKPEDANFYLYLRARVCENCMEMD

EC50 for T-cell activation in the in vitro human PBMC:MOLP-2 co-culture [1]: 0.0588 µg/mL
EC50 for T-cell activation in the in vitro human PBMC:MOLP-2 co-culture [2]: 0.0588 µg/mL
Kd [3]: 2.6 nM
B1: cevostamab (bispecific antibody, human IgG1, kappa, N297G)
heavy 1: not shown
light 1: DIQMTQSPSSLSASVGDRVTITCKASQDVRNLVVWFQQKPGKAPKLLIYSGSYRYSGVPSRFSGSGSGTDFTLTISSLQPEDFATYYCQQHYSPPYTFGQGTKVEIKRTVAAPSVFIFPPSDEQLKSGTASVVCLLNNFYPREAKVQWKVDNALQSGNSQESVTEQDSKDSTYSLSSTLTLSKADYEKHKVYACEVTHQGLSSPVTKSFNRGEC
heavy 2: EVQLVQSGAEVKKPGASVKVSCKASGFTFTSYYIHWVRQAPGQGLEWIGWIYPENDNTKYNEKFKDRVTITADTSTSTAYLELSSLRSEDTAVYYCARDGYSRYYFDYWGQGTLVTVSSASTKGPSVFPLAPSSKSTSGGTAALGCLVKDYFPEPVTVSWNSGALTSGVHTFPAVLQSSGLYSLSSVVTVPSSSLGTQTYICNVNHKPSNTKVDKKVEPKSCDKTHTCPPCPAPELLGGPSVFLFPPKPKDTLMISRTPEVTCVVVDVSHEDPEVKFNWYVDGVEVHNAKTKPREEQYGSTYRVVSVLTVLHQDWLNGKEYKCKVSNKALPAPIEKTISKAKGQPREPQVYTLPPSREEMTKNQVSLSCAVKGFYPSDIAVEWESNGQPENNYKTTPPVLDSDGSFFLVSKLTVDKSRWQQGNVFSCSVMHEALHNHYTQKSLSLSPGK
light 2: not shown
notes: Humanized full-length non-glycosylated IgG1 kappa, knobs-into-holes; also called BFCR4350A; RO7187797
